Kd data for 1 sequence are collected here from paper PMC4538796.

In data set [1] the target is brH (GCN4 basic region/AT-Hook conjugate) (UniProt P03069). Description: fluorescence anisotropy. Particulars: 20 C; 25 nM DNA; apparent; Anisotropy (given for GAGAH): 20 mM Tris-HCl pH 7.5, 100 mM NaCl, 0.02 mM ZnCl2, 20 C, 25 nM TMR-DNA; EMSA: 75 nM dsDNA, rt (GAGAH), 10% native PAGE, 0.5x TBE …. For orientation: Polarisation of emitted light reports the rotation of a fluorescent probe.

The target in data set [2] is GAGAH (GAGA zinc finger/AT-Hook conjugate) (UniProt Q08605). Briefly: fluorescence anisotropy. Particulars: Zn2+, Anisotropy (given for GAGAH): 20 mM Tris-HCl pH 7.5, 100 mM NaCl, 0.02 mM ZnCl2, 20 C, 25 nM TMR-DNA, EMSA: 75 nM dsDNA, rt (GAGAH), 10% native PAGE, 0.5x TBE ….
Sequence of UniProt Q08605 (Q08605 other isoform, or with tags, fused parts or gaps, change not shown): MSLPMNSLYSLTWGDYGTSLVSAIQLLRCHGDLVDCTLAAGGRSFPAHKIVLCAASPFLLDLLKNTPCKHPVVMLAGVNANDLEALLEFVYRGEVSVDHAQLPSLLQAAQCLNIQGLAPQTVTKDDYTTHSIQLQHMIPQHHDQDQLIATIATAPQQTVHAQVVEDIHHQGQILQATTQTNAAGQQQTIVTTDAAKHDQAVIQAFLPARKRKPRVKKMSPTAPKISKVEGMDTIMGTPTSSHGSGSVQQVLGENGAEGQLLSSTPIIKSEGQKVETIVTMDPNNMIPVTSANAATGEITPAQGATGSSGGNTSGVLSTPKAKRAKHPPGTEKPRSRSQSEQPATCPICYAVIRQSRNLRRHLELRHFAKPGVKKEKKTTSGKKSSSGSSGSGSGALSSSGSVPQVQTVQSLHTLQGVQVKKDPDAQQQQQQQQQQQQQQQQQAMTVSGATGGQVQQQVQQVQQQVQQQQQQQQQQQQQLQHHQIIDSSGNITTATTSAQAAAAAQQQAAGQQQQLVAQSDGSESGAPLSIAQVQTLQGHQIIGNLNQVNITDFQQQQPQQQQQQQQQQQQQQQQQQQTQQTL

Consider “CGCGTCATAATTGAGAGCGC (double strand) [TMR-AP1hs·AT = TMR-AT·GAGA]”, for which the Kd was found to be 28 nM in data set [1]; 26 nM in data set [2] (20 C, 25 nM DNA, apparent); 42 nM in data set [2] (excess calf thymus DNA competitor).
